A word on the Kd: it is a measure of binding affinity in units of concentration.

Sequence of GFP-FBXW7α (Q969H0 whole entry): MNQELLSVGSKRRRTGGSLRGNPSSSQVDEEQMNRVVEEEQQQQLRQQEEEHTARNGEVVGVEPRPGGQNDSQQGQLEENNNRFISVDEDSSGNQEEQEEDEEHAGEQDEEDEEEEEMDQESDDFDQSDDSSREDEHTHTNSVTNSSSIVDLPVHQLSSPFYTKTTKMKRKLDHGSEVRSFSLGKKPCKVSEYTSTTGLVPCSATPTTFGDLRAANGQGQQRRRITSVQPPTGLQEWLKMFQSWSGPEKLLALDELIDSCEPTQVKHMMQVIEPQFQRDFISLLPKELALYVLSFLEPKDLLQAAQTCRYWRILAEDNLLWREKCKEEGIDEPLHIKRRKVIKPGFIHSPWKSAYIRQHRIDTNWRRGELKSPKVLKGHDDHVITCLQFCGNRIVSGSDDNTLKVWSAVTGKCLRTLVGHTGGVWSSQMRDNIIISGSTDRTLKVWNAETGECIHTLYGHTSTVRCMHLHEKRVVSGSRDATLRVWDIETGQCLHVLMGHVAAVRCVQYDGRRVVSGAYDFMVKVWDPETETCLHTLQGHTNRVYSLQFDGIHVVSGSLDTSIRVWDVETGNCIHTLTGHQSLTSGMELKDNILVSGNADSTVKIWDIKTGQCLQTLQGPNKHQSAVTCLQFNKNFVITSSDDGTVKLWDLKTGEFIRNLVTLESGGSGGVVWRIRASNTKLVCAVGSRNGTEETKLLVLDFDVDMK

The target in one assay is T1, GFP-POLD1 (human, UniProt P28340 1-1107).
T1 chain: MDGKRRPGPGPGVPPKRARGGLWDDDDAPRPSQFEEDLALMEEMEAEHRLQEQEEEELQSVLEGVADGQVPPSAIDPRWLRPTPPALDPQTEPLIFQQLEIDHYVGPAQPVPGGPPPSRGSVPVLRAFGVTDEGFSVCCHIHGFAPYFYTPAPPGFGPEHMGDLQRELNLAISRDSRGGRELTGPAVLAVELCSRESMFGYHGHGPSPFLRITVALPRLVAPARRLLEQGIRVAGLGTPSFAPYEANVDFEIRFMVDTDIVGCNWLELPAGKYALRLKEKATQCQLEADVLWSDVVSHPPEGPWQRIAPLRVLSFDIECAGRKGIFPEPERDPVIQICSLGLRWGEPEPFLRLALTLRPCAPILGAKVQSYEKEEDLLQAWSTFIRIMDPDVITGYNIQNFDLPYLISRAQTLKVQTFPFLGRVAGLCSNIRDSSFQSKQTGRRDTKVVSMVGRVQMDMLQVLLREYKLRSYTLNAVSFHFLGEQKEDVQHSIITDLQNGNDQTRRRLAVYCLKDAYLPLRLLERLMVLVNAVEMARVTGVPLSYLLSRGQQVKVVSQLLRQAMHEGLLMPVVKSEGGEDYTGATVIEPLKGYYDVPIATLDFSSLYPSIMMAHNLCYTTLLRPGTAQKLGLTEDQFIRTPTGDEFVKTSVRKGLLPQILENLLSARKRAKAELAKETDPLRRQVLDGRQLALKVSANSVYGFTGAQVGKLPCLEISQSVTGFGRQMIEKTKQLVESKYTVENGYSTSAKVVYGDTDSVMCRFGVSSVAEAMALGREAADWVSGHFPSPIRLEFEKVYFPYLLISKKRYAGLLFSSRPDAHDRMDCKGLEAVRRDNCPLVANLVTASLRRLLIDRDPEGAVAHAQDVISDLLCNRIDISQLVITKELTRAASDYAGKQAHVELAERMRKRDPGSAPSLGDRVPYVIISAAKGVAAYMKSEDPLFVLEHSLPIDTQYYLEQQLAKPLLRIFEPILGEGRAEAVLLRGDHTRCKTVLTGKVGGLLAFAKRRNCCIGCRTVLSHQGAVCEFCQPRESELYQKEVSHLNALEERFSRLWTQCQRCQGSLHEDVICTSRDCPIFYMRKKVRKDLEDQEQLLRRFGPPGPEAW
Nature of the assay: MST.
On to APSEDIWKKFELLPAPPLSP [MB1-T58A peptide], for which binding was put at a Kd of 49.9 µM.
The same measure, in the same setting: the same measure for APSEDIWKKFELLPTPPLSP [MYC-MB1 (WT) peptide]: 34.5 µM; for APSEDIWKKFELLPDPPLSP [MB1-T58D peptide]: 30.8 µM.

Another assay addresses GFP-FBXW7α (human, UniProt Q969H0 1-707). Nature of the assay: MST.
Turning to APSEDIWKKFELLPAPPLSP [MB1-T58A peptide], binding was put at a Kd of 2160 µM. This lies in the millimolar range.
On the same count and under the same terms, the same measure for APSEDIWKKFELLPTPPLSP [MYC-MB1 (WT) peptide]: 700 µM.
Still for that read-out and setting: the result for APSEDIWKKFELLPDPPLSP [MB1-T58D peptide] reads 110 µM.
